# From the supplement of paper PMC5998384
# Key:
# [1] = system: HeLa Kyoto; experiment: solubility in G1/S (NP-40 vs SDS abundance) (log2 ratio); higher = more soluble; details: cell cycle stage: G1/S
# [2] = system: HeLa Kyoto; experiment: melting temperature (median over replicates), in situ; higher = more thermally stable
# [3] = system: HeLa Kyoto; experiment: solubility change mitosis vs G1/S (difference of NP-40 vs SDS log2 ratios) (log2 ratio difference); higher = more soluble in mitosis
# [4] = system: HeLa Kyoto; experiment: thermal stability score vs G1/S (z-score of summed log2 fold changes over temperatures); higher = more thermally stable than in G1/S
# [5] = cell cycle stage: early G1 (4.5 h after nocodazole release)
# 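For melting temperature (median over replicates), in situ in this document: HeLa Kyoto cells synchronized by double thymidine or nocodazole block, proteins quantified by TMT10plex mass spectrometry, three independent biological replicates.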
# 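For solubility change mitosis vs G1/S (difference of NP-40 vs SDS log2 ratios) in this document: synchronized HeLa Kyoto cells (double thymidine block for G1/S, nocodazole release for mitosis), protein amounts in NP-40 versus SDS lysates quantified by mass spectrometry, three biological replicates.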
# 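For solubility in G1/S (NP-40 vs SDS abundance) in this document: HeLa Kyoto cells arrested at G1/S by double thymidine block, proteins quantified by TMT10plex mass spectrometry in mild NP-40 versus SDS extracts, three biological replicates.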
# 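For thermal stability score vs G1/S (z-score of summed log2 fold changes over temperatures) in this document: synchronized HeLa Kyoto cells, proteins quantified by TMT10plex mass spectrometry, three biological replicates, mitosis taken 0.5 h after nocodazole release, G1/S directly after double thymidine block.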
Sequence,solubility in G1/S (log2) [1],melting temperature ([2]; cell cycle stage: G1/S) [°C],melting temperature ([2]; cell cycle stage: mitosis) [°C],solubility change mitosis (log2) [3],"thermal stability score [4, 5]",thermal stability score ([4]; cell cycle stage: mitosis)
MPHFTVVPVDGPRRGDYDNLEGLSWVDYGERAELDDSDGHGNHRESSPFLSPLEASRGIDYYDRNLALFEEELDIRPKVSSLLGKLVSYTNLTQGAKEHEEAESGEGTRRRAAEAPSMGTLMGVYLPCLQNIFGVILFLRLTWMVGTAGVLQALLIVLICCCCTLLTAISMSAIATNGVVPAGGSYFMISRSLGPEFGGAVGLCFYLGTTFAAAMYILGAIEILLTYIAPPAAIFYPSGAHDTSNATLNNMRVYGTIFLTFMTLVVFVGVKYVNKFASLFLACVIISILSIYAGGIKSIFDPPVFPVCMLGNRTLSRDQFDICAKTAVVDNETVATQLWSFFCHSPNLTTDSCDPYFMLNNVTEIPGIPGAAAGVLQENLWSAYLEKGDIVEKHGLPSADAPSLKESLPLYVVADIATSFTVLVGIFFPSVTGIMAGSNRSGDLRDAQKSIPVGTILAIITTSLVYFSSVVLFGACIEGVVLRDKYGDGVSRNLVVGTLAWPSPWVIVIGSFFSTCGAGLQSLTGAPRLLQAIAKDNIIPFLRVFGHGKVNGEPTWALLLTALIAELGILIASLDMVAPILSMFFLMCYLFVNLACAVQTLLRTPNWRPRFKYYHWALSFLGMSLCLALMFVSSWYYALVAMLIAGMIYKYIEYQGAEKEWGDGIRGLSLSAARYALLRLEEGPPHTKNWRPQLLVLLKLDEDLHVKYPRLLTFASQLKAGKGLTIVGSVIQGSFLESYGEAQAAEQTIKNMMEIEKVKGFCQVVVASKVREGLAHLIQSCGLGGMRHNSVVLGWPYGWRQSEDPRAWKTFIDTVRCTTAAHLALLVPKNIAFYPSNHERYLEGHIDVWWIVHDGGMLMLLPFLLRQHKVWRKCRMRIFTVAQMDDNSIQMKKDLAVFLYHLRLEAEVEVVEMHNSDISAYTYERTLMMEQRSQMLRQMRLTKTEREREAQLVKDRHSALRLESLYSDEEDESAVGADKIQMTWTRDKYMTETWDPSHAPDNFRELVHIKPDQSNVRRMHTAVKLNEVIVTRSHDARLVLLNMPGPPRNSEGDENYMEFLEVLTEGLERVLLVRGGGREVITIYS [SLC12A4],0.0648,54.3,54.2,-0.148,0.505,0.0338
MPHIDNDVKLDFKDVLLRPKRSTLKSRSEVDLTRSFSFRNSKQTYSGVPIIAANMDTVGTFEMAKVLCKFSLFTAVHKHYSLVQWQEFAGQNPDCLEHLAASSGTGSSDFEQLEQILEAIPQVKYICLDVANGYSEHFVEFVKDVRKRFPQHTIMAGNVVTGEMVEELILSGADIIKVGIGPGSVCTTRKKTGVGYPQLSAVMECADAAHGLKGHIISDGGCSCPGDVAKAFGAGADFVMLGGMLAGHSESGGELIERDGKKYKLFYGMSSEMAMKKYAGGVAEYRASEGKTVEVPFKGDVEHTIRDILGGIRSTCTYVGAAKLKELSRRTTFIRVTQQVNPIFSEAC [GMPR2],0.0286,56.3,59.4,-0.137,-0.68,-2.3
MPHLPLASFRPPFWGLRHSRGLPRFHSVSTQSEPHGSPISRRNREAKQKRLREKQATLEAEIAGESKSPAESIKAWRPKELVLYEIPTKPGEKKDVSGPLPPAYSPRYVEAAWYPWWVREGFFKPEYQARLPQATGETFSMCIPPPNVTGSLHIGHALTVAIQDALVRWHRMRGDQVLWVPGSDHAGIATQAVVEKQLWKERGVRRHELSREAFLREVWQWKEAKGGEICEQLRALGASLDWDRECFTMDVGSSVAVTEAFVRLYKAGLLYRNHQLVNWSCALRSAISDIEVENRPLPGHTQLRLPGCPTPVSFGLLFSVAFPVDGEPDAEVVVGTTRPETLPGDVAVAVHPDDSRYTHLHGRQLRHPLMGQPLPLITDYAVQPHVGTGAVKVTPAHSPADAEMGARHGLSPLNVIAEDGTMTSLCGDWLQGLHRFVAREKIMSVLSEWGLFRGLQNHPMVLPICSRSGDVIEYLLKNQWFVRCQEMGARAAKAVESGALELSPSFHQKNWQHWFSHIGDWCVSRQLWWGHQIPAYLVVEDHAQGEEDCWVVGRSEAEAREVAAELTGRPGAELTLERDPDVLDTWFSSALFPFSALGWPQETPDLARFYPLSLLETGSDLLLFWVGRMVMLGTQLTGQLPFSKVLLHPMVRDRQGRKMSKSLGNVLDPRDIISGVEMQVLQEKLRSGNLDPAELAIVAAAQKKDFPHGIPECGTDALRFTLCSHGVQAGDLHLSVSEVQSCRHFCNKIWNALRFILNALGEKFVPQPAEELSPSSPMDAWILSRLALAAQECERGFLTRELSLVTHALHHFWLHNLCDVYLEAVKPVLWHSPRPLGPPQVLFSCADLGLRLLAPLMPFLAEELWQRLPPRPGCPPAPSISVAPYPSACSLEHWRQPELERRFSRVQEVVQVLRALRATYQLTKARPRVLLQSSEPGDQGLFEAFLEPLGTLGYCGAVGLLPPGAAAPSGWAQAPLSDTAQVYMELQGLVDPQIQLPLLAARRYKLQKQLDSLTARTPSEGEAGTQRQQKLSSLQLELSKLDKAASHLRQLMDEPPAPGSPEL [VARS2],-0.0605,52,52.1,0.0161,0.335,0.452
MPILKQLVSSSVHSKRRSRADLTAEMISAPLGDFRHTMHVGRAGDAFGDTSFLNSKAGEPDGESLDEQPSSSSSKRSLLSRKFRGSKRSQSVTRGEREQRDMLGSLRDSALFVKNAMSLPQLNEKEAAEKGTSKLPKSLSSSPVKKANDGEGGDEEAGTEEAVPRRNGAAGPHSPDPLLDEQAFGDLTDLPVVPKATYGLKHAESIMSFHIDLGPSMLGDVLSIMDKEEWDPEEGEGGYHGDEGAAGTITQAPPYAVAAPPLARQEGKAGPDLPSLPSHALEDEGWAAAAPSPGSARSMGSHTTRDSSSLSSCTSGILEERSPAFRGPDRARAAVSRQPDKEFSFMDEEEEDEIRV [CDC42EP4],0.487,53.6,51.8,-0.0259,-3.73,-2.19
MPKCPKCNKEVYFAERVTSLGKDWHRPCLKCEKCGKTLTSGGHAEHEGKPYCNHPCYAAMFGPKGFGRGGAESHTFK [CRIP1],-0.362,57.6,53.5,0.414,-4.54,-5.63
MPKFKAARGVGGQEKHAPLADQILAGNAVRAGVREKRRGRGTGEAEEEYVGPRLSRRILQQARQQQEELEAEHGTGDKPAAPRERTTRLGPRMPQDGSDDEDEEWPTLEKAATMTAAGHHAEVVVDPEDERAIEMFMNKNPPARRTLADIIMEKLTEKQTEVETVMSEVSGFPMPQLDPRVLEVYRGVREVLSKYRSGKLPKAFKIIPALSNWEQILYVTEPEAWTAAAMYQATRIFASNLKERMAQRFYNLVLLPRVRDDVAEYKRLNFHLYMALKKALFKPGAWFKGILIPLCESGTCTLREAIIVGSIITKCSIPVLHSSAAMLKIAEMEYSGANSIFLRLLLDKKYALPYRVLDALVFHFLGFRTEKRELPVLWHQCLLTLVQRYKADLATDQKEALLELLRLQPHPQLSPEIRRELQSAVPRDVEDVPITVE [BYSL],-0.343,48.3,49,0.115,1.85,5.44
